Experiments:
[1] = target: tumor necrosis factor alpha (TNF-α), R&D Systems 210-TA-005 (UniProt P01375); experiment: c-PLA, buffer; TNF-α 5.00E-07 M
[2] = target: tumor necrosis factor alpha (TNF-α), R&D Systems 210-TA-005 (UniProt P01375); experiment: t-PLA, buffer; TNF-α 1.00E-12 M
[3] = target: tumor necrosis factor alpha (TNF-α), R&D Systems 210-TA-005 (UniProt P01375); experiment: t-PLA 1X probes, buffer; TNF-α 1.00E-08 M
[4] = target: tumor necrosis factor alpha (TNF-α), R&D Systems 210-TA-005 (UniProt P01375); experiment: c-PLA 10X probes, buffer; TNF-α 1.00E-10 M
[5] = target: tumor necrosis factor alpha (TNF-α), R&D Systems 210-TA-005 (UniProt P01375); experiment: t-PLA 10X probes, buffer; TNF-α 1.00E-08 M
[6] = target: tumor necrosis factor alpha (TNF-α), R&D Systems 210-TA-005 (UniProt P01375); experiment: t-PLA 10X probes, buffer; TNF-α 5.00E-07 M
[7] = target: tumor necrosis factor alpha (TNF-α), R&D Systems 210-TA-005 (UniProt P01375); experiment: c-PLA 1X probes, human plasma; TNF-α 1.00E-09 M
[8] = target: tumor necrosis factor alpha (TNF-α), R&D Systems 210-TA-005 (UniProt P01375); experiment: c-PLA 1X probes, human plasma; TNF-α 1.00E-11 M
[9] = target: tumor necrosis factor alpha (TNF-α), R&D Systems 210-TA-005 (UniProt P01375); experiment: t-PLA 1X probes, human plasma; TNF-α 1.00E-10 M
[10] = target: tumor necrosis factor alpha (TNF-α), R&D Systems 210-TA-005 (UniProt P01375); experiment: t-PLA 1X probes, human plasma; TNF-α 1.00E-12 M
[11] = target: tumor necrosis factor alpha (TNF-α), R&D Systems 210-TA-005 (UniProt P01375); experiment: c-PLA 10X probes, human plasma; TNF-α 1.00E-10 M
[12] = target: tumor necrosis factor alpha (TNF-α), R&D Systems 210-TA-005 (UniProt P01375); experiment: c-PLA 10X probes, human plasma; TNF-α 1.00E-11 M
[13] = target: tumor necrosis factor alpha (TNF-α), R&D Systems 210-TA-005 (UniProt P01375); experiment: SPR (Biacore T200), biotinylated antibody on CAP chip, 1:1 fit
[14] = target: tumor necrosis factor alpha (TNF-α), R&D Systems 210-TA-005 (UniProt P01375); experiment: BLI (Octet RED), antibody on protein G sensors, 1:1 global fit
[15] = target: vascular endothelial growth factor (VEGF), R&D Systems 293-VE-010 (human) (UniProt P15692); experiment: c-PLA, buffer; VEGF 1.00E-10 M
Chain of UniProt P15692 (P15692 other isoform, or with tags, fused parts or gaps limits assumed): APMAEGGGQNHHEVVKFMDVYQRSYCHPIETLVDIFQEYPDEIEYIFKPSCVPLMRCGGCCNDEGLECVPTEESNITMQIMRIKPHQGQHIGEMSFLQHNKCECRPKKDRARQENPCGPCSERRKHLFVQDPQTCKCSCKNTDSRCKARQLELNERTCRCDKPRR

[16] = target: vascular endothelial growth factor (VEGF), R&D Systems 293-VE-010 (human) (UniProt P15692); experiment: c-PLA, human plasma; VEGF 1.00E-08 M
[17] = target: vascular endothelial growth factor (VEGF), R&D Systems 293-VE-010 (human) (UniProt P15692); experiment: c-PLA, human plasma; VEGF 1.00E-14 M
[18] = target: vascular endothelial growth factor (VEGF), R&D Systems 293-VE-010 (human) (UniProt P15692); experiment: t-PLA, human plasma; VEGF 1.00E-14 M
[19] = target: vascular endothelial growth factor (VEGF), R&D Systems 293-VE-010 (human) (UniProt P15692); experiment: c-PLA, chicken plasma; VEGF 1.00E-10 M
[20] = target: vascular endothelial growth factor (VEGF), R&D Systems 293-VE-010 (human) (UniProt P15692); experiment: c-PLA, chicken plasma; VEGF 1.00E-12 M
[21] = target: vascular endothelial growth factor (VEGF), R&D Systems 293-VE-010 (human) (UniProt P15692); experiment: t-PLA, chicken plasma; VEGF 1.00E-11 M
[22] = target: vascular endothelial growth factor (VEGF), R&D Systems 293-VE-010 (human) (UniProt P15692); experiment: c-PLA with preamplification; VEGF 1.00E-09 M
[23] = target: vascular endothelial growth factor (VEGF), R&D Systems 293-VE-010 (human) (UniProt P15692); experiment: c-PLA with preamplification; VEGF 1.00E-10 M
[24] = target: vascular endothelial growth factor (VEGF), R&D Systems 293-VE-010 (human) (UniProt P15692); experiment: c-PLA with preamplification; VEGF 1.00E-11 M
[25] = target: vascular endothelial growth factor (VEGF), R&D Systems 293-VE-010 (human) (UniProt P15692); experiment: c-PLA with preamplification; VEGF 1.00E-12 M
[26] = target: vascular endothelial growth factor (VEGF), R&D Systems 293-VE-010 (human) (UniProt P15692); experiment: SPR, isoaffinity graph
[27] = target: vascular endothelial growth factor (VEGF), R&D Systems 293-VE-010 (human) (UniProt P15692); experiment: SPR (Biacore T200), biotinylated antibody on CAP chip, 1:1 fit
[28] = target: vascular endothelial growth factor (VEGF), R&D Systems 293-VE-010 (human) (UniProt P15692); experiment: BLI (Octet RED), antibody on protein G sensors, 1:1 global fit

Chain of UniProt P01375 (P01375 77-233 limits assumed): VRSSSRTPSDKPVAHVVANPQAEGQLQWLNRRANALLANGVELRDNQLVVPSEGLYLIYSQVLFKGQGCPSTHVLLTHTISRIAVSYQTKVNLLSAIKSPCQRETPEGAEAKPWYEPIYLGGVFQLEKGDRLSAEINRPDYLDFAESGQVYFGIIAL

affinity-purified polyclonal anti-TNF-α antibody (R&D Systems AF-210-NA)
Counts [1]: 33000 | SBR [1]: 2930 | Counts [2]: 1.65e+06 | SBR [2]: 9.7 | Counts [3]: 5.4e+07 | SBR [3]: 65 | Counts [4]: 4620 | Counts [5]: 1.33e+09 | SBR [5]: 233 | Counts [6]: 2.24e+09 | SBR [6]: 392 | Counts [7]: 1310 | SBR [7]: 17 | Counts [8]: 105 | SBR [8]: 1.4 | Counts [9]: 1.56e+06 | SBR [9]: 6.6 | Counts [10]: 154000 | Counts [11]: 7420 | Counts [12]: 2970 | SBR [12]: 1.4 | Kd [13]: 0.28 nM | Kd [14]: 6.43 nM

affinity-purified polyclonal anti-VEGF antibody (R&D Systems AF-293-NA)
Counts [15]: 95900 | SBR [15]: 3230 | Counts [16]: 24800 | SBR [16]: 96 | Counts [17]: 292 | SBR [17]: 1.1 | Counts [18]: 1.63e+06 | Counts [19]: 26800 | SBR [19]: 2900 | Counts [20]: 198 | SBR [20]: 22 | Counts [21]: 7.94e+06 | SBR [21]: 119 | Counts [22]: 2.36e+08 | SBR [22]: 3970 | Counts [23]: 6.02e+07 | SBR [23]: 1010 | Counts [24]: 4.88e+06 | SBR [24]: 82 | Counts [25]: 516000 | SBR [25]: 8.7 | Kd [26]: < 0.005 nM | Kd [27]: 0.0036 nM | Kd [28]: 0.057 nM

From patent US20190360025A1
